*1 amine or outer side, *2 acyl side, *3 side chain or, on linkers, in order; H or OH if unused. Bridges are numbered along the chain shown (N, C = ends). Primed or numbered codes have the meaning given here. [ ]: non-standard residue; d: D form. Phe(4-OMe)(3) = O-methyl-L-tyrosine (4-methoxy-L-phenylalanine), COc1ccc(C[C@H](N[*:1])C(=O)[*:2])cc1; Tyr(3-tBu) = CC(C)(C)c1cc(C[C@H](N)C(=O)O)ccc1O; NMeK = CN[C@@H](CCCCN)C(=O)O; αMeK = C[C@](N)(CCCCN)C(=O)O; Abu = CC[C@H](N)C(=O)O; AEA = NCCOCC(=O)O

In test [1] the target is T1, IL-23R on human cells (IL-23R-expressing DB cells; human NK cells) (human, UniProt Q5VWK5 24-629).
T1 sequence (looked up): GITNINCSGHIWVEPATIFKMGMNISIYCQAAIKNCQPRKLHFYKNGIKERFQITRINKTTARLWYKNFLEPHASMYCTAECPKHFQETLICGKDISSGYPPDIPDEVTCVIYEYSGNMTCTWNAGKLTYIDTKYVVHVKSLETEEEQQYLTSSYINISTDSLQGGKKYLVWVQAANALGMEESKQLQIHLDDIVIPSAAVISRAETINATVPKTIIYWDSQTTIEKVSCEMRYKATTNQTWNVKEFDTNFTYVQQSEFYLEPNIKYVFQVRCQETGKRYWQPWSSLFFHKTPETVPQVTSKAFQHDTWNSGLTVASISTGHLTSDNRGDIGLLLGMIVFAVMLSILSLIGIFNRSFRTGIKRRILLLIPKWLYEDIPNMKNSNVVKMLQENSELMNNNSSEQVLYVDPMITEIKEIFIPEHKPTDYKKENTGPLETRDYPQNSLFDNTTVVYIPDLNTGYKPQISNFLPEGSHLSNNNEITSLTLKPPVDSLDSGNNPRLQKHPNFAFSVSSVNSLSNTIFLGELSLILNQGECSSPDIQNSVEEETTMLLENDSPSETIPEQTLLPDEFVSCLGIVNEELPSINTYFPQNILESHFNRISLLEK
The test can be described thus: cell-based or functional assay.

For test [2], the target named is T2, IL23R_huFC (human, UniProt Q5VWK5 24-353).
T2 sequence (looked up): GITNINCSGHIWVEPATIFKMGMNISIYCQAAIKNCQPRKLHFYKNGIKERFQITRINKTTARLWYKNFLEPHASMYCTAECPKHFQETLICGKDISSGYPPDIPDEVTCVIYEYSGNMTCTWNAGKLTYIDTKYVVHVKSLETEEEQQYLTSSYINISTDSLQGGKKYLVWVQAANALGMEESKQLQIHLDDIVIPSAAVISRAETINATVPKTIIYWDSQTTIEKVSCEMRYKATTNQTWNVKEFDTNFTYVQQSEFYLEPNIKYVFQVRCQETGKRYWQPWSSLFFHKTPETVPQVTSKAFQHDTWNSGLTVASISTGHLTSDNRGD
The test is described as follows: human ELISA vs IL-23. On the technique in general: An ELISA detects its analyte on a solid surface through an enzyme-linked reagent.

Test [3] concerns the target Rat IL-23R_huFC (rat). The test is described as follows: rat ELISA vs IL-23.
For test [4], the target named is T3, IL23R_huFC (human, UniProt Q5VWK5 24-353).
T3 sequence (looked up): T2 sequence (looked up)
The test is described as follows: IL23-IL23R competitive ELISA.

In another test the target is T4, IL-23R on DB cells (human, UniProt Q5VWK5 24-629).
T4 sequence (looked up): T1 sequence (looked up)
The test is described as follows: cell-based or functional assay.

Test [5] has as its target T5, Rat IL-23R_huFC (rat, UniProt F1LX96 39-369).
T5 sequence: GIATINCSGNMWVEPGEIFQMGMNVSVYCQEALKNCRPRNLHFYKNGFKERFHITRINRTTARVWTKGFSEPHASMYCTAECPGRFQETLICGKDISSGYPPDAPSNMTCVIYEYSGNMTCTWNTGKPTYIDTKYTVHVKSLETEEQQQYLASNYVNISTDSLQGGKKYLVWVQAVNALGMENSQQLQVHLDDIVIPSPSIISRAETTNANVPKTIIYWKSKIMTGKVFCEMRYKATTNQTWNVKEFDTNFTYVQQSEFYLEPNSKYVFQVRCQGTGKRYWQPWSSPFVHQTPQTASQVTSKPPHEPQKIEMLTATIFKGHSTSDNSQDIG
The test is described as follows: rat IL-23R competitive binding ELISA.

In test [6] the target is T6, IL23R_huFC (human, UniProt Q5VWK5 24-353).
T6 sequence (looked up): T2 sequence (looked up)
The test is described as follows: IL23-IL23R competitive binding ELISA.

The target in test [7] is T2, IL23R_huFC. The test can be described thus: human ELISA vs IL-23. This is another data set of the same source.

Regarding XNTWQXFXXKNN (as bracketed in name; Pen-Pen disulfide; DIG linker) [[Ac-[Pen]-NTWQ-[Pen]-[Phe(4-CONH2)]-[2-Nal]-[Aib]-KNN-NH2]2 DIG], the “NK cell assay IC50 (IFNγ)” value in test [1] was less than 10 nM.

One may read the IC50 as the concentration needed to halve the response being measured. Lower therefore signals higher potency. As for Ac-[Abu]QTWQC[Phe(4-OMe)(3)][Tyr(3-tBu)][αMeK]ENG-NH2 (thioether 1-6) [Ac-Cyclo-[[Abu]-QTWQC]-[Phe(4-OMe)]-[Tyr(3-tBu)]-[α-MeLys]-ENG-NH2], the figures for the IC50 with IL23R_huFC [2] and with Rat IL-23R_huFC [3] were 25 to 100 nM and 100 to 1000 nM, respectively.

For the molecule Ac-ARTWQ[MeCys]YWRKFG[AEA][dK]-NH2 (not fully specified; printed as Ac-ARTWQ-[MeCys]-YWRKFG-[AEA]-[(D)Lys]-NH2) [Ac-ARTWQ-[MeCys]-YWRKFG-[AEA]-[(D)Lys]-NH2], in the test with IL23R_huFC [4], the IC50 was determined as 7570 nM.

On to Ac-C[NMeK]TWQCYWRVFG[AEA][dK]-NH2 (cysteine pairing not given here) [Ac-C-[N-MeLys]-TWQCYWRVFG-[AEA]-[(D)Lys]-NH2], for which the IC50 with IL23R_huFC [4] was 80 nM.

As for Ac-CKTWQCYWRVFG[AEA][dK]-NH2 (cysteine pairing not given here) [Ac-CKTWQCYWRVFG-[AEA]-[(D)Lys]-NH2], the IC50 with IL23R_huFC [4] came out at 40 nM.

For CADWVCYFXXFGXK (not fully specified; Ac-; [Phe(CONH2)]; [Orn]; [Dap]; [AEA]; [(D)Lys]; -NH2) [Ac-CADWVCY-[Phe(CONH2)]-[Orn]-[Dap]-FG-[AEA]-[(D)Lys]-NH2], the IC50 in the test with IL23R_huFC [4] is approximately 6000 nM.

In the test with IL23R_huFC [4], CADWVCYFXXFGXK (not fully specified; Ac-; [hPhe]; [Orn]; [Dap]; [AEA]; [(D)Lys]; -NH2) [Ac-CADWVCY-[hPhe]-[Orn]-[Dap]-FG-[AEA]-[(D)Lys]-NH2] came in with an IC50 of 30000 nM.

As to XNTWQXFXXKNN (as bracketed in name; Pen-Pen disulfide) [Ac-[Pen]-NTWQ[Pen]-[Phe(CONH2)]-[2-Nal]-[Aib]-[Lys(Ac)]-NN-NH2], the “NK cell assay IC50 (IFNγ)” value in test [1] is less than 10 nM.

For the molecule XQTWQXFXLKNN (as bracketed in name; Pen-Pen disulfide) [Ac-[Pen]-QTWQ-[Pen]-[Phe[4-(2-aminoethoxy)]-[2-Nal]-[α-MeLeu]-[Lys(Ac)]-NN-NH2], the “NK cell assay IC50 (IFNγ)” value in test [1] is less than 10 nM.

On to XNTWQXFXXKNA (as bracketed in name; Pen-Pen disulfide) [Ac-[Pen]-NTWQ-[Pen]-[Phe]4-(2-aminoethoxy)]-[2-Nal]-[Aib]-[Lys(Ac)]-N-[βAlal-NH2], for which the “NK cell assay IC50 (IFNγ)” value in test [1] was less than 10 nM.

B1: Ac-CSTWQCYWLKHGGE-NH2 (peptide)
peptide: Ac-CSTWQCYWLKHGGE-NH2
modifications: disulfide 1-6
SMILES: CC(=O)N[C@H]1CSSC[C@@H](C(=O)N[C@@H](Cc2ccc(O)cc2)C(=O)N[C@@H](Cc2c[nH]c3ccccc23)C(=O)N[C@@H](CC(C)C)C(=O)N[C@@H](CCCCN)C(=O)N[C@@H](Cc2c[nH]cn2)C(=O)NCC(=O)NCC(=O)N[C@@H](CCC(=O)O)C(N)=O)NC(=O)[C@H](CCC(N)=O)NC(=O)[C@H](Cc2c[nH]c3ccccc23)NC(=O)[C@H]([C@@H](C)O)NC(=O)[C@H](CO)NC1=O
As for B1, the “pStat3 HTRF IC50” value with IL-23R on DB cells came out at 2 nM. The molecule further came in with an IC50 in the test with Rat IL-23R_huFC [5] of 24 nM.

On to CQTWQCYWXENG (not fully specified; Ac; Ogl; NH2) [Ac-CQTWQCYW-[Ogl]-ENG-NH2], for which the “pStat3 HTRF IC50” value with IL-23R on DB cells was determined as 76 nM.

Consider CQTWQCXWXENG (not fully specified; Ac; X7 = Cha; X9 = hLeu; NH2) [Ac-CQTWQC-[Cha]-W-[hLeu]-ENG-NH2], for which the IC50 in the test with IL23R_huFC [6] is approximately 6000 nM.

For Ac-[Abu]QTWQCYWRENG[AEA][dK]-NH2 (thioether 1-6) [Ac-Cyclo-[[Abu]-QTWQC]-YWRENG-[AEA]-[(D)Lys]-NH2], the IC50 with Rat IL-23R_huFC [3] and with IL23R_huFC [7] was 100 to 1000 nM in each case.

These data come from patent US20190300590A1 (PROTAGONIST THERAPEUTICS, published 2019).
